The values below come from patent US20220249561A1 (SHINSHU UNIVERSITY, published 2022).

The target in assay [1] is T1, LTK 001P.
T1 construct: Expressed in Expi293 cells and captured on a Protein A chip through its Fc
Briefly: SPR, Biacore 8K; LTK 001P captured on Protein A chip, ligand as analyte, 6 concentrations from 20 nM. (In general: Surface plasmon resonance follows binding to a sensor surface in real time, without labels.)

The target in assay [2] is T2, ALK 001P.
T2 construct: ALK (1-19) is described only as a region comprising a secretory signal, and no cleavage site is stated; Expressed in Expi293 cells and captured on a Protein A chip through its Fc
As to the kind of experiment: SPR, Biacore 8K; ALK 001P captured on Protein A chip, ligand as analyte, 6 concentrations from 20 nM.

B1: Ligand 013P (ligand)
chain: DGHHHHHHGSLQDSEVNQEAKPEVKPEVKPETHINLKVSDGSSEIFFKIKKTTPLRRLMEAFAKRQGKEMDSLTFLYDGIEIQADQTPEDLDMEDNDIIEAHREQIGGLEVLFQGPEIVPRDLRMKDKFLKHLTGPLYFSPKCSKHFHRLYHNTRDCTIPAYYKRCARLLTRLAVSPVCMEDKQ
Turning to B1, the binding result in assay [1] and in assay [2] was “binds” throughout.

B2: Ligand 023P (ligand)
chain: DGHHHHHHGSLQDSEVNQEAKPEVKPEVKPETHINLKVSDGSSEIFFKIKKTTPLRRLMEAFAKRQGKEMDSLTFLYDGIEIQADQTPEDLDMEDNDIIEAHREQIGGLEVLFQGPAEAAGLGPSPEQRVEIVPRDLRMKDKFLKHLTGPLYFSPKCSKHFHRLYHNTRDCTIPAYYKRCARLLTRLAVSPVCMED
B2: the binding result in assay [1] and in assay [2] was “binds” in each case.

B3: Ligand 022P (ligand)
chain: DGHHHHHHGSLQDSEVNQEAKPEVKPEVKPETHINLKVSDGSSEIFFKIKKTTPLRRLMEAFAKRQGKEMDSLTFLYDGIEIQADQTPEDLDMEDNDIIEAHREQIGGLEVLFQGPGPLYFSPKCSKHFHRLYHNTRDCTIPAYYKRCARLLTRLAVSPVCMEDKQ
For B3, the binding result in assay [1] and in assay [2] was “binds” each time.

B4: Ligand 009P (ligand)
chain: DGHHHHHHGSLQDSEVNQEAKPEVKPEVKPETHINLKVSDGSSEIFFKIKKTTPLRRLMEAFAKRQGKEMDSLTFLYDGIEIQADQTPEDLDMEDNDIIEAHREQIGGLEVLFQGPGPSPEQRVEIVPRDLRMKDKFLKHLTGPLYFSPKCSKHFHRLYHNTRDCTIPAYYKRCARLLTRLAVSPVCMEDKQ
For B4, the binding result in assay [1] and in assay [2] was “binds” in each case.

B5: Ligand 018P (ligand)
chain: DGHHHHHHGSLQDSEVNQEAKPEVKPEVKPETHINLKVSDGSSEIFFKIKKTTPLRRLMEAFAKRQGKEMDSLTFLYDGIEIQADQTPEDLDMEDNDIIEAHREQIGGLEVLFQGPDKFLKHLTGPLYFSPKCSKHFHRLYHNTRDCTIPAYYKRCARLLTRLAVSPVCMEDKQ
notes: also called Ligand 18P
In the case of B5, the binding result in assay [1] and in assay [2] was “binds” throughout.

B6: Ligand 012P (ligand)
chain: DGHHHHHHGSLQDSEVNQEAKPEVKPEVKPETHINLKVSDGSSEIFFKIKKTTPLRRLMEAFAKRQGKEMDSLTFLYDGIEIQADQTPEDLDMEDNDIIEAHREQIGGLEVLFQGPRVEIVPRDLRMKDKFLKHLTGPLYFSPKCSKHFHRLYHNTRDCTIPAYYKRCARLLTRLAVSPVCMEDKQ
On to B6, for which the binding result in assay [1] and in assay [2] was “binds” throughout.

B7: Ligand 020P (ligand)
chain: DGHHHHHHGSLQDSEVNQEAKPEVKPEVKPETHINLKVSDGSSEIFFKIKKTTPLRRLMEAFAKRQGKEMDSLTFLYDGIEIQADQTPEDLDMEDNDIIEAHREQIGGLEVLFQGPKHLTGPLYFSPKCSKHFHRLYHNTRDCTIPAYYKRCARLLTRLAVSPVCMEDKQ
In the case of B7, the binding result in assay [1] and in assay [2] was “binds” each time.

B8: Ligand 010P (ligand)
chain: DGHHHHHHGSLQDSEVNQEAKPEVKPEVKPETHINLKVSDGSSEIFFKIKKTTPLRRLMEAFAKRQGKEMDSLTFLYDGIEIQADQTPEDLDMEDNDIIEAHREQIGGLEVLFQGPSPEQRVEIVPRDLRMKDKFLKHLTGPLYFSPKCSKHFHRLYHNTRDCTIPAYYKRCARLLTRLAVSPVCMEDKQ
For B8, the binding result in assay [1] and in assay [2] was “binds” each time.

B9: Ligand 008P (ligand)
chain: DGHHHHHHGSLQDSEVNQEAKPEVKPEVKPETHINLKVSDGSSEIFFKIKKTTPLRRLMEAFAKRQGKEMDSLTFLYDGIEIQADQTPEDLDMEDNDIIEAHREQIGGLEVLFQGPGLGPSPEQRVEIVPRDLRMKDKFLKHLTGPLYFSPKCSKHFHRLYHNTRDCTIPAYYKRCARLLTRLAVSPVCMEDKQ
Take B9: the binding result in assay [1] and in assay [2] was “binds” each time.

B10: Ligand 003P (ligand)
chain: DGHHHHHHGSLQDSEVNQEAKPEVKPEVKPETHINLKVSDGSSEIFFKIKKTTPLRRLMEAFAKRQGKEMDSLTFLYDGIEIQADQTPEDLDMEDNDIIEAHREQIGGLEVLFQGPAEAAGLGPSPEQRVEIVPRDLRMKDKFLKHLTGPLYFSPKCSKHFHRLYHNTRDCTIPAYYKRCARLLTRLAVSPVCMEDKQ
On to B10, for which the binding result in assay [1] and in assay [2] was “binds” in each case.

B11: Ligand 011P (ligand)
chain: DGHHHHHHGSLQDSEVNQEAKPEVKPEVKPETHINLKVSDGSSEIFFKIKKTTPLRRLMEAFAKRQGKEMDSLTFLYDGIEIQADQTPEDLDMEDNDIIEAHREQIGGLEVLFQGPEQRVEIVPRDLRMKDKFLKHLTGPLYFSPKCSKHFHRLYHNTRDCTIPAYYKRCARLLTRLAVSPVCMEDKQ
notes: also called Li 011P
For B11, the binding result in assay [1] and in assay [2] was “binds” throughout.

B12: Ligand 006P (ligand)
chain: DGHHHHHHGSLQDSEVNQEAKPEVKPEVKPETHINLKVSDGSSEIFFKIKKTTPLRRLMEAFAKRQGKEMDSLTFLYDGIEIQADQTPEDLDMEDNDIIEAHREQIGGLEVLFQGPGRAEAAGLGPSPEQRVEIVPRDLRMKDKFLKHLTGPLYFSPKCSKHFHRLYHNTRDCTIPAYYKRCARLLTRLAVSPVCMEDKQ
B12: the binding result in assay [1] and in assay [2] was “binds” in each case.

B13: Ligand 021P (ligand)
chain: DGHHHHHHGSLQDSEVNQEAKPEVKPEVKPETHINLKVSDGSSEIFFKIKKTTPLRRLMEAFAKRQGKEMDSLTFLYDGIEIQADQTPEDLDMEDNDIIEAHREQIGGLEVLFQGPLTGPLYFSPKCSKHFHRLYHNTRDCTIPAYYKRCARLLTRLAVSPVCMEDKQ
As for B13, the binding result in assay [1] and in assay [2] was “binds” each time.

B14: Ligand 005P (ligand)
chain: DGHHHHHHGSLQDSEVNQEAKPEVKPEVKPETHINLKVSDGSSEIFFKIKKTTPLRRLMEAFAKRQGKEMDSLTFLYDGIEIQADQTPEDLDMEDNDIIEAHREQIGGLEVLFQGPALGRAEAAGLGPSPEQRVEIVPRDLRMKDKFLKHLTGPLYFSPKCSKHFHRLYHNTRDCTIPAYYKRCARLLTRLAVSPVCMEDKQ
Consider B14, for which the binding result in assay [1] and in assay [2] was “binds” each time.

B15: Ligand 016P (ligand)
chain: DGHHHHHHGSLQDSEVNQEAKPEVKPEVKPETHINLKVSDGSSEIFFKIKKTTPLRRLMEAFAKRQGKEMDSLTFLYDGIEIQADQTPEDLDMEDNDIIEAHREQIGGLEVLFQGPLRMKDKFLKHLTGPLYFSPKCSKHFHRLYHNTRDCTIPAYYKRCARLLTRLAVSPVCMEDKQ
Consider B15, for which the binding result in assay [1] and in assay [2] was “binds” throughout.

B16: Ligand 019P (ligand)
chain: DGHHHHHHGSLQDSEVNQEAKPEVKPEVKPETHINLKVSDGSSEIFFKIKKTTPLRRLMEAFAKRQGKEMDSLTFLYDGIEIQADQTPEDLDMEDNDIIEAHREQIGGLEVLFQGPFLKHLTGPLYFSPKCSKHFHRLYHNTRDCTIPAYYKRCARLLTRLAVSPVCMEDKQ
Take B16: the binding result in assay [1] and in assay [2] was “binds” throughout.

B17: Ligand 024P (ligand)
chain: DGHHHHHHGSLQDSEVNQEAKPEVKPEVKPETHINLKVSDGSSEIFFKIKKTTPLRRLMEAFAKRQGKEMDSLTFLYDGIEIQADQTPEDLDMEDNDIIEAHREQIGGLEVLFQGPAEAAGLGPSPEQRVEIVPRDLRMKDKFLKHLTGPLYFSPKCSKHFHRLYHNTRDCTIPAYYKRCARLLTRLAVSPVCM
With B17, the binding result in assay [1] and in assay [2] was “binds” in each case.

B18: Ligand 007P (ligand)
chain: DGHHHHHHGSLQDSEVNQEAKPEVKPEVKPETHINLKVSDGSSEIFFKIKKTTPLRRLMEAFAKRQGKEMDSLTFLYDGIEIQADQTPEDLDMEDNDIIEAHREQIGGLEVLFQGPAAGLGPSPEQRVEIVPRDLRMKDKFLKHLTGPLYFSPKCSKHFHRLYHNTRDCTIPAYYKRCARLLTRLAVSPVCMEDKQ
Turning to B18, the binding result in assay [1] and in assay [2] was “binds” throughout.

B19: Ligand 014P (ligand)
chain: DGHHHHHHGSLQDSEVNQEAKPEVKPEVKPETHINLKVSDGSSEIFFKIKKTTPLRRLMEAFAKRQGKEMDSLTFLYDGIEIQADQTPEDLDMEDNDIIEAHREQIGGLEVLFQGPVPRDLRMKDKFLKHLTGPLYFSPKCSKHFHRLYHNTRDCTIPAYYKRCARLLTRLAVSPVCMEDKQ
For the molecule B19, the binding result in assay [1] and in assay [2] was “binds” in each case.

B20: Ligand 017P (ligand)
chain: DGHHHHHHGSLQDSEVNQEAKPEVKPEVKPETHINLKVSDGSSEIFFKIKKTTPLRRLMEAFAKRQGKEMDSLTFLYDGIEIQADQTPEDLDMEDNDIIEAHREQIGGLEVLFQGPMKDKFLKHLTGPLYFSPKCSKHFHRLYHNTRDCTIPAYYKRCARLLTRLAVSPVCMEDKQ
Regarding B20, the binding result in assay [1] and in assay [2] was “binds” throughout.

B21: Ligand 015P (ligand)
chain: DGHHHHHHGSLQDSEVNQEAKPEVKPEVKPETHINLKVSDGSSEIFFKIKKTTPLRRLMEAFAKRQGKEMDSLTFLYDGIEIQADQTPEDLDMEDNDIIEAHREQIGGLEVLFQGPRDLRMKDKFLKHLTGPLYFSPKCSKHFHRLYHNTRDCTIPAYYKRCARLLTRLAVSPVCMEDKQ
Regarding B21, the binding result in assay [1] and in assay [2] was “binds” each time.
